Reference: PMC8386928 (Science Advances, 2021)

Target: biotinylated PepT2 (C-terminal Avi tag) (Rattus norvegicus, UniProt Q63424, biotin (on the Avi tag, by BirA))
Assay: BLI

Chain of biotinylated PepT2 (C-terminal Avi tag) (Q63424 whole entry): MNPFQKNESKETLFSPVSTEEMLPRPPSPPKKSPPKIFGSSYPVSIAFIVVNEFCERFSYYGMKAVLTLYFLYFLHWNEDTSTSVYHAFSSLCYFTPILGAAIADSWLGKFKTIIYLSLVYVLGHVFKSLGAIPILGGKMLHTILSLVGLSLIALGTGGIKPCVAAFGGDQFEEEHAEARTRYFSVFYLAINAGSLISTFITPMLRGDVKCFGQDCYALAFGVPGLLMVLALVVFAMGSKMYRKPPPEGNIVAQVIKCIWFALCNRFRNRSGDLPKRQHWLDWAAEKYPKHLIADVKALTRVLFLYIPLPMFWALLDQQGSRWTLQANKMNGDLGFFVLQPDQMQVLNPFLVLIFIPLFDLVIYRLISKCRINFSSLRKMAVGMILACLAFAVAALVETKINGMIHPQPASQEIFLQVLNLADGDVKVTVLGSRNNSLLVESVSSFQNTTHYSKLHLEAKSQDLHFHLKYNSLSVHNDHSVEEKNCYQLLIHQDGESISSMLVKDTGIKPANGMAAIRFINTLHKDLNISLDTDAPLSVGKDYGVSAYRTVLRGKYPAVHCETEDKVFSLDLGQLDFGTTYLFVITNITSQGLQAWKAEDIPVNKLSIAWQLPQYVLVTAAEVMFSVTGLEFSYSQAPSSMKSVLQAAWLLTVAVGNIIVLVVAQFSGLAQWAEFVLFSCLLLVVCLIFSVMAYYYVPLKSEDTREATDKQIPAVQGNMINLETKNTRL

Kd: ~25 nM
B1: nanobody D8 (VHH)
VHH: QVQLVESGGGLVQPGGSLRLLCVASGRPFNDYDMGWFRQAPGKEREFVASISWSGRVTDYSDSMKGRCTVSRDNAKGTMFLQMSNLVPRDTAVYYCAAARRRWTFKATNTEEFYETWGQGTQVTVSS
